# ± gives the uncertainty stated by the source.
# Experiment: amyloid nucleation score (Sup35N fusion, yeast selection) (log enrichment); library NNK3; higher = more nucleation; inactive = no reads after selection
# Procedure, shortened: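 Plasmid inserts were Illumina-sequenced at input and output from psi-negative yeast expressing Sup35N fused to peptides of 20 random codons. The yeast were induced with 100 μM copper sulfate for 24 hours and grown 7 days at 30°C on medium lacking adenine and uracil, and sequences with under 100 input reads were excluded. Nucleation score is the DiMSum log enrichment of output over input reads, centred on the mode score of non-aggregating sequences.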
row,Substance,amyloid nucleation score
1,RGRGAPCARFRNVYGMPFFY,inactive
2,RGRYWWFYYLAFICMKWYSG,inactive
3,RGSWSYQILWINTVRW,-0.347 ± 0.53
4,RHELTNRREK,inactive
5,RHEVRRKKSQ,inactive
6,RHEVYSTANYHVCSCRFFIV,0.406 ± 0.17
7,RHGLCFTIEAVPPPFIRWHW,-0.662 ± 1.3
8,RHGSCMTVCVYSSMLSYRST,0.163 ± 0.31
9,RHLDNFNINVTLNLSFRVGM,2.52 ± 0.089
10,RHREAGEATTSFNFMRMSGP,inactive
11,RHRFSTSGRYFVSIRLVSSF,inactive
12,RHSLQMVRGTHSLCLWYNWV,inactive
13,RIEAFLAP,1.12 ± 0.18
14,RILLLDTEFRLPNLPTS,1.89 ± 0.072
15,RILLNANRYTMPSGVYDHRA,inactive
16,RIPVSWFNWCTWVYVL,inactive
17,RISKA,inactive
18,RISLDNTWGFL,inactive
19,RISSCSYHRVRVHVDTWAHV,inactive
20,RIVNALTSCDLFSCGSVLRR,1.92 ± 0.1
21,RIYQRSFIWCASMESGSGPL,0.747 ± 0.2
22,RKASSVFILGFVWWDHFEIL,inactive
23,RKAYATYATDRLISSDYG,inactive
24,RKEMLKMRRFRSRGCWVILS,inactive
25,RKFGWIRVAWCSKRIVYYSK,-0.324 ± 0.62
26,RKNVELANPLFTSPWLNIMY,inactive
27,RKPFENIDS,inactive

row,Substance,amyloid nucleation score
1,RKRYFWNHAEISILKTSSSW,inactive
2,RKSDFVIVSCYQRFGNRELN,inactive
3,RKVEG,inactive
4,RKYVTRCASMMVHHYAYDTR,inactive
5,RLEGRLLCKWVCP,1.96 ± 0.069
6,RLFFNPVVVVIWPGVRNVGV,0.189 ± 0.66
7,RLFFVSMAF,inactive
8,RLFRWMPDNVTGRWMVYAWF,inactive
9,RLFTTLVRDLTENCIRFLWT,inactive
10,RLGLSAMSFCLCDSTSIATY,inactive
11,RLGSSNV,inactive
12,RLIILNVFVSDNTNWLHRIH,1.37 ± 0.083
13,RLILDNHDTSFCLIHGSRMI,inactive
14,RLIYHRQFFRE,inactive
15,RLLGTRSYTIWACYTCAVFM,2.15 ± 0.088
16,RLLLGTIYSFLKLHGDFNGR,inactive
17,RLLLMIL,inactive
18,RLMDITL,inactive
19,RLMYKMMHVSGDEECLFVMV,inactive
20,RLNVYTYAKFRRHRCKATSW,inactive
21,RLNWGFTLA,inactive
22,RLPLPL,inactive
23,RLRFLRT,inactive
24,RLRRSGVKWVVLKGGTRTWQ,inactive
25,RLRSNDSDLNRIAAIKVRGI,inactive
26,RLRVG,inactive
27,RLRVM,inactive

row,Substance,amyloid nucleation score
1,RLSAPCCWYNTLIE,1.96 ± 0.099
2,RLSEFGVNVAQMWATVVTSL,inactive
3,RLSHTMCRVLCHWVMSYSVS,inactive
4,RLTACASYIGINGRSRN,inactive
5,RLTRVVIMQRFIGEVRLSAL,inactive
6,RLVFNLGGYFLKWCIDCFIR,inactive
7,RLVLRDPTSTVIVRVPLGFV,-0.547 ± 1.9
8,RMAIISSRIWFGFLAMQFVF,inactive
9,RMDADI,inactive
10,RMDWWYSGCLFMRYPALTAL,inactive
11,RMFKFGTCYKSVGPTKRAEC,inactive
12,RMHDSCFLYGISEDRDSLGN,inactive
13,RMINVSVR,inactive
14,RMKFGADIAVVHVCPMEFSG,inactive
15,RMPRQGLWMRVF,inactive
16,RMRSWMGCGRHCLWRHLEEL,inactive
17,RMRYFDVYIWSDMRNEPGGL,inactive
18,RMTMRRSSWQVEGITSLRIL,inactive
19,RMYACSWGKSDLSCLMSFGK,inactive
20,RMYRGWLVPDAARSKGCRVM,inactive
21,RNCLIYGHNDILGISRLSDF,inactive
22,RNEWCFSKPILEYHCRMDVF,inactive
23,RNFARCRFNPPMTHHSFFNT,inactive
24,RNFMSFRWPVLKLQRRVP,inactive
25,RNIYM,inactive
26,RNLSLDLT,inactive

# Reference: the supplement of paper PMC12042874
